# In patent US7998940B2, “Aptamers to von Willebrand factor and their use as thrombotic disease therapeutics” (Archemix Corp., priority 2004, dated 2011):
# Residue numbers refer to the chain shown, from its start. Where two headings read alike, the source gives them in different places. Oligonucleotides are written 5' to 3', each unit as a sugar letter and its base; * is a phosphorothioate linkage, no mark a phosphodiester; rarer units and linkages stand in square brackets, end groups in braces. Plain capitals give the bases only. d = 2'-deoxy (DNA); r = 2'-OH (RNA); f = 2'-fluoro
# B1: AMX237.G7: DNA SELEX 2 aptamer clone (nucleic acid)
# DNA: CTACCTACGATCTGACTAGCTTGGTAGCGACTTTGTGGAGCTGCGGTTTGGTCGACGTCAGCTTACTCTCATGTAGTTCC
# modifications: DNA, backbone not given here
# notes: DNA SELEX 2 aptamer clone
# B2: AMX236.A12: DNA SELEX 2 aptamer clone (nucleic acid)
# chain: B1 DNA with T33C
# modifications: DNA, backbone not given here
# notes: DNA SELEX 2 aptamer clone
# B3: AMX203.D6: rRdY aptamer clone (nucleic acid)
# chain: rGrGrArGdCrGdCrAdCdTdCrArGdCdCrAdCrArGdTdTdCdTrGdTdCrGrGdTrGrAdTrGrArAdTdTrArGdCrGdCrGrArGrArGdCdTrGdTrGrGrGrAdCrGdTdTdTdCrGrAdCdCdTdCdTdCdTrGdCdTrArGdC
# B4: AMX203.A1: rRdY aptamer clone (nucleic acid)
# chain: rGrGrArGdCrGdCrAdCdTdCrArGdCdCrAdCrArGdTdTdCdTrGdTdCrGrGdTrGrAdTrGrArAdTdTrArGdCrGdCrGrGrGrArGdCdTrGdTrGrGrGrAdCrGdTdTdTdCrGrAdCdCdTdCdTdCdTrGdCdTrArGdC
# B5: AMX206.E7: rRdY aptamer clone (nucleic acid)
# chain: rGrGrArGdCrGdCrAdCdTdCrArGdCdCrAdCrGrGrArGdCrGdTdCrGrGdTrGrAdTrGrGrAdTdTrArGdCrGdCrGrGdCdTdCdCrGdTrGrGdTrAdCrAdCdCdTdTdTdCrGrAdCdCdTdCdTdCdTrGdCdTrArGdC
# B6: AMX205.H8: rRdY aptamer clone (nucleic acid)
# chain: rGrGrArGdCrGdCrAdCdTdCrArGdCdCrAdCrArArAdCrGrGrAdCrGrGdTrGrAdTrGrGrAdTdTrArAdCrGdCrGrGrGdTdTdTrAdTrGrGdCrArArGrGdTdTdTdCrGrAdCdCdTdCdTdCdTrGdCdTrArGdC
# B7: AMX201.B1: rRfY aptamer clone (nucleic acid)
# chain: rGrGrArGfCrGfCrAfCfUfCrArGfCfCrAfCrArGrArGfCfCfCfUrGrArGfUrGfUrAfUrGrAfUfCrGfCfCfUrArGrAfUfCfUrAfUfCrGrAfUrGfCfUfUfUfUfUfCrGrAfCfCfUfCfUfCfUrGfCfUrArGfC
# B8: AMX205.H9: rRdY aptamer clone (nucleic acid)
# chain: rGrGrArGdCrGdCrAdCdTdCrArGdCdCrAdCrGrAdCrGrGdTrGrAdTrGrGrAdTdTrArGdCrGdCrGrGdTrGrGrArGrArArGrAdTrGdCrGdCdTrGdTdTrGdTdTdTdCrGrAdCdCdTdCdTdCdTrGdCdTrArGdC
# B9: AMX206.D7: rRdY aptamer clone (nucleic acid)
# chain: rGrGrArGdCrGdCrAdCdTdCrArGdCdCrAdCrGrGdCrAdCrGrAdCrGrGdTrGrAdTrGrArAdTdTrArGdCrGdCrGrGdTrGdTdCrGrGdTrGrGdTrGdTdTrAdTdTdTdCrGrAdCdCdTdCdTdCdTrGdCdTrArGdC
# B10: AMX201.H3: rRfY aptamer clone (nucleic acid)
# chain: rGrGrArGfCrGfCrAfCfUfCrArGfCfCrAfCfUrArAfCrGrGfUfUrGrAfUfCfUfCrArGrGrAfCfUrArArAfUrArGfUfCrArAfCrArArGrGrAfUrGfCrGfUfUfUfCrGrAfCfCfUfCfUfCfUrGfCfUrArGfC
# What was measured:
# [1] = system: full length human vWF binding to lyophilized platelets; test: Full length human von Willebrand Factor platelet binding assay (FACS); type: cell-based; conditions: 5 nM full length human vWF, lyophilized platelets, botrocetin; for IC50: read-out: Inhibition of full length hVWF binding in FACS assay, Average IC50; for Inhibition of full length hVWF binding in FACS assay, IC50 range: both bounds in nM
# Summary of the method: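 Aptamer titrations (0.1–1000 nM) pre-incubated with 5 nM full-length human vWF, then added to lyophilized platelets plus botrocetin for 15 min at 37 °C in PBS/0.5% BSA. Bound vWF detected by anti-vWF then FITC secondary antibody via flow cytometry MFI; % inhibition versus no-aptamer binding fitted for IC50.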
# [2] = system: botrocetin induced platelet aggregation; test: Inhibition of botrocetin induced platelet aggregation (BIPA) in human PRP; type: cell-based; conditions: botrocetin induced platelet aggregation, 6 minutes
# Method: In platelet rich plasma isolated from fresh human blood, botrocetin induces platelet aggregation via vWF. Platelet aggregate formation can be measured optically as an increase in % light transmittance on a Chronolog Model 490-4D Aggregometer because aggregation of platelets clarifies the plasma. Aptamers of the invention were analyzed for their ability to inhibit botrocetin induced platelet aggregation (“BIPA”) in human blood. An aptamer of the invention was considered to be active if it could prevent aggregate formation for six minutes post botrocetin addition.
# In order to determine the activity of aptamers on live human platelets, BIPA assays were done using freshly prepared platelet rich plasma. Blood was obtained from healthy human donors who had not taken NSAIDS for at least five days. […] Collected blood was pooled into 15 mL conical tubes and was spun at 200 g for 20 minutes. The turbid, yellow layer of platelet rich plasma (“PRP”) was withdrawn from the tubes, pooled, and set aside at room temperature. The remaining blood was spun at 2500 g for ten minutes. The clarified layer of plasma, known as platelet poor plasma (“PPP”), was withdrawn and set aside at room temperature. PRP was aliquoted into cuvettes containing stir bars at a volume of 470 uL. A sample of 500 uL of PPP was aliquoted into a cuvette and placed in the PPP reference cell of the platelet aggregometer. Samples of PRP were prewarmed at 37 degrees C. in the platelet aggregometer for 3-5 minutes before being used in BIPA assays. First, the concentration of botrocetin needed to induce platelet aggregation for each individual donor was determined by titration. This concentration of botrocetin was used for the remainder of the experiment. Next, aptamer was assayed by adding titrations of aptamer (zero, 1 nM to 1000 nM) to prewarmed PRP for one minute, followed by addition of botrocetin. With platelet aggregation, an increase in amplitude of light transmission is seen (FIG. 8). The concentration at which platelet aggregation is blocked at 90% or greater after 6 minutes is reported in the final column of Table 26.
# full length human vWF = test: 3-point dot blot screen, full length human vWF; type: binding; conditions: 20 nM full length human vWF, ratio of fraction of aptamer bound with target protein to fraction bound without protein
# From the text: When a significant positive ratio of binding of DNA in the presence of human or rabbit vWF A1 domain versus in the absence of protein was seen, the pools were cloned using the TOPO TA cloning kit (Invitrogen Cat. #45-0641, Carlsbad, Calif.) according to the manufacturer's instructions. Round 7 and 11 pool templates were cloned and sequenced (218 total sequences), producing 146 unique clones within 12 sequence families of which sequences from six families show vWF target binding activity. All unique clones were assayed twice in a 3-point dot blot screen (no protein target control, 20 nM full length human vWF (Calbiochem Cat. #681300, La Jolla, Calif.), or 20 nM rabbit vWF A1 domain. The data is presented in the third and fourth columns of Table 17 below as the ratio of the fraction of the aptamer bound to the nitrocellulose in the presence of the target protein to the fraction of aptamer bound in the absence of the target protein.
# [3] = system: rabbit vWF A1 domain (SEQ ID NO 6); test: 3-point dot blot screen, rabbit vWF A1 domain; type: binding; conditions: for Screen Rabbit/No Protein: 3-point dot blot screen, 20 nM rabbit vWF A1 domain, ratio of fraction of aptamer bound with target protein to fraction bound without protein; for Screen- Rabbit/No Protein: 100 nM rabbit vWF A1 domain, ratio of fraction bound with target to without
# Summary of the method: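 Rabbit vWF A1 domain binding was screened by dot blot using three conditions: no target protein, human vWF, and rabbit vWF A1 domain at 100 nM (20 nM in the screen run twice). Radiolabeled aptamer bound to nitrocellulose was quantified, and results are expressed as the ratio of bound fraction with protein to bound fraction without protein.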
# [4] = system: rabbit vWF domain A1 binding to lyophilized platelets; test: Rabbit von Willebrand Factor domain A1 platelet binding assay (FACS); type: cell-based; conditions: 4 nM rabbit A1 vWF, lyophilized platelets, botrocetin; both bounds in nM; read-out: Inhibition of rabbit VWF A1 domain binding in FACS assay, IC50 range
# Method: Botrocetin induces the binding of the A1 domain of vWF to platelets, as well as the full length protein. It was determined by the inventors that 6-Histidine-tagged rabbit A1 domain vWF purified protein could be induced to bind to human lyophilized platelets with botrocetin. Rabbit A1 binding to platelets is measured with an anti-poly-His antibody followed by incubation with a phycoerythrin conjugated secondary antibody. The degree of binding can be quantified by flow cytometric analysis. The ability of aptamers to block the binding of rabbit A1 to human fixed platelets was correlated with decreased fluorescence signal.
# The ability of aptamers of the invention to block rabbit vWF domain A1 binding to lyophilized platelets was also assessed by flow cytometric analysis. Titrations of aptamers (zero, 0.1 nM to 1000 nM) were preincubated briefly with 4 nM of rabbit A1 vWF in FACS buffer (PBS plus 0.5% bovine serum albumin) at room temperature in a volume of 50 uL. Another 50 uL containing 5 uL of lyophilized platelets plus 1 uL of 0.1 U/uL of botrocetin in FACS buffer was added to aptamer/vWF. This reaction was allowed to proceed for 15 minutes at 37 degrees C. after which 200 uL of FACS buffer was added. Platelets were collected by a 6 minute spin at 1470 RCF and the supernatant was discarded. The pellets were resuspended in 100 uL of FACS buffer containing a 1:200 dilution of anti-Penta-HIS-biotin conjugate antibody and were incubated at room temperature for 30 minutes. After the dilution with 200 uL of FACS buffer, the platelets were spun at 1470 RCF for 6 minutes, and the supernatant was discarded. The pellets were resuspended in a 1:100 solution of anti-IgG-PE antibody and were incubated in the dark for 30 minutes at room temperature. The entire 100 uL was diluted into 200 uL of FACS buffer and analyzed immediately by flow cytometric analysis in the FACSCAN. Contaminating debris was eliminated from the analysis by drawing a gate around the population of single and aggregated platelets and collecting data from 10000 events. Median fluorescent intensity (“MedFI”) readings (which are generally equivalent to the MFI readings, described in Example 3a above, for comparative purposes) were quantified for each sample analyzed by flow cytometry. Background MedFI was subtracted from all data points. Percent inhibition was reported by calculating the percent value of binding of […] to platelets in the presence of aptamer at a given concentration relative to binding in the absence of any aptamer (see FIG. 7). IC50 values were determined by fitting the percent inhibition of vWF binding to platelets as a function of aptamer concentration to the equation: % inhibition=% inhibitionmax/(1+IC50/aptamer conc.)
# [5] = molecular target: T1, human vWF A1 domain (SEQ ID NO 5) (Homo sapiens, UniProt P04275, T1381A); test: 3-point dot blot screen, human vWF A1 domain; type: binding; conditions: 100 nM human vWF A1 domain
# Summary of the method: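 Values are ratios of aptamer fraction retained on nitrocellulose with 100 nM vWF A1 domain (human or rabbit) versus a no-protein control. Unique clones from rounds 9 and 12 pools were transcribed, desalted and 5'-32P labeled before this three-point dot blot screen.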
# [6] = molecular target: T1, human vWF A1 domain (SEQ ID NO 5); test: dot blot KD determination, human vWF A1 domain
# Method: For KD determination, aptamers transcripts were purified on 10% denaturing polyacrylamide gels, 5′ end labeled with γ-^32P ATP.
# For KD determination, aptamers were purified on denaturing polyacrylamide gels and 5′-end labeled with γ-^32P ATP. A 6 point protein titration of human vWF A1 domain (SEQ ID NO 5) was used in the dot blot assay (333 nM, 100 nM, 33 nM, 10 nM, 3 nM, 0 nM) in 1×DPBS plus 0.1 mg/mL BSA at room temperature for 30 minutes. KD values were calculated by fitting the equation y=(max/(1+K/protein))+yint using KaleidaGraph (KaleidaGraph v. 3.51, Synergy Software).
# KD values were calculated by fitting the equation y=(max/(1+K/protein))+yint using KaleidaGraph (KaleidaGraph v. 3.51, Synergy Software).
# All minimer sequences were transcribed, gel-purified on 15% denaturing polyacrylamide gels, 5-^32 end-labeled with γ^32P ATP, and then desalted using two Centri-Spin 10 columns (Princeton Separations Cat. #CS-101, Adelphia, N.J.). For KD determination, minimer transcripts were tested for direct binding to full length human vWF (SEQ ID NO 7), human vWF A1 domain (SEQ ID NO 5), and rabbit vWF A1 domain (SEQ ID NO 6) using an 8 point protein titration from 0-300 nM (3 fold dilutions) in 1× Dulbecco's PBS containing 0.1 mg/mL BSA (in a final volume of 50 uL) for 30 minutes at room temperature and then applied to a nitrocellulose and nylon filter sandwich in a dot blot apparatus (Schleicher and Schuell, Keene, N.H.). KD values were calculated by fitting the equation y=(max/(1+K/protein))+yint using KaleidaGraph (KaleidaGraph v. 3.51, Synergy Software).
# All minimer DNA sequences were chemically synthesized, 5-^32P end-labeled with γ-^32P ATP, and then desalted using two Centri-Spin 10 columns (Princeton Separations, Cat. #CS-101, Adelphia, N.J.). […] KD values were calculated by fitting the equation y=(max/(1+K/protein))+yint using KaleidaGraph (KaleidaGraph v. 3.51, Synergy Software).
# [7] = rRdY aptamers, ratio of fraction bound with target to without
# [8] = read-out: Human A1 KD, rRdY aptamers, 6 point protein titration
# [9] = read-out: human A1 KD, rRfY aptamers, 8 point titration of human vWF A1 domain
# T1 sequence (P04275 with tags, fused parts or gaps T1381A): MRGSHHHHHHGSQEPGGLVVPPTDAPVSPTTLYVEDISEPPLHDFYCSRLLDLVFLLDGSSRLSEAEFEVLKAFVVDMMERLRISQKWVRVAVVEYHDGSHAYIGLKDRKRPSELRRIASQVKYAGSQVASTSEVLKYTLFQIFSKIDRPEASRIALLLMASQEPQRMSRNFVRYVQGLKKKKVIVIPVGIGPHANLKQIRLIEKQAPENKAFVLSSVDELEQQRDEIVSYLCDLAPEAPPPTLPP
# rabbit vWF A1 domain (SEQ ID NO 6), sequence (as listed by the source): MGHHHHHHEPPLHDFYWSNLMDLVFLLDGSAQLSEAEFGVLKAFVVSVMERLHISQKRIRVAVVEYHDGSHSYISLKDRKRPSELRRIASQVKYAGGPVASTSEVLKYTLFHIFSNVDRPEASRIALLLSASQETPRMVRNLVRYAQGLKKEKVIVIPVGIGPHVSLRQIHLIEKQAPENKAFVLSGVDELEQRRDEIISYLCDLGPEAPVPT
# rabbit vWF domain A1 binding to lyophilized platelets, sequence (as listed by the source): as above
Molecule,"Inhibition of full length hVWF binding in FACS assay, IC50 range [1]",Screen- Rabbit/No Protein ([3]; rRdY aptamers),"Screen- Human/No Protein [5, 7]","Kd [6, 8]",also measured
"GGAGCCACACGACATTGGCGCGAGAGCGCATGGCTCC (chemistry not given here) [SEQ ID NO 201, minimized rRdY aptamer]",,,,,IC50 [1]: 150 nM; ≦200 nM aptamer gives >90% blocking in BIPA at 6 minutes [2]: no activity
B1,,,,,IC50 [1]: 6.5 nM; Screen- Human/No Protein (full length human vWF): 2.68; Screen Rabbit/No Protein [3]: 2.54; IC50 [4]: 12.3 nM
B2,,,,,IC50 [1]: 10.7 nM; Screen- Human/No Protein (full length human vWF): 2.64; Screen Rabbit/No Protein [3]: 2.41; IC50 [4]: 14.5 nM
B3,no activity,1.57,1.92,523 nM,
B4,no activity,2.67,2.99,1150 nM,
B5,no activity,2.26,2.11,151 nM,
B6,no activity,2.84,2.04,788 nM,
B7,no activity,,,,"≦200 nM aptamer gives >90% blocking in BIPA at 6 minutes [2]: yes; Kd [6, 9]: 19 nM"
B8,no activity,3.14,2.36,178 nM,
B9,no activity,2.08,2.19,187 nM,
B10,no activity,,,,"≦200 nM aptamer gives >90% blocking in BIPA at 6 minutes [2]: yes; Screen- Rabbit/No Protein ([3]; rRfY aptamers): 1.89; Screen- Human/No Protein ([5]; rRfY aptamers, ratio of fraction bound with target to fraction bound without target): 1.88; Kd [6, 9]: 90 nM"
